We go through three substances from paper PMC2900298.

This assay deals with HSV1(F) viral capsids treated with 0.5 M KCl (HSV1 strain F) (UniProt P10219). Kind of assay: immunoelectron microscopy (immunogold labelling of capsids, negative staining); capsids incubated with […] pig brain cytosol, adsorbed on grids, labelled with antibodies against MAP subunits and protein-A gold; gold per mono-disperse capsid counted, labelling of capsids in buffer subtracted as background.
UniProt P10219, sequence (P10219 whole entry, looked up): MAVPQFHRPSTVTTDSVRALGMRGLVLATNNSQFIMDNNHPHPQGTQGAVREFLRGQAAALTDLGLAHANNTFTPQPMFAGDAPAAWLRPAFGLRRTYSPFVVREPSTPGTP

“cytoplasmic dynein of pig brain cytosol (complex)” came in with a gold particles per capsid above background of 0.75 gold/capsid; a percent of capsids with more than one complex, background taken into account of 20%; a percent of capsids with two labels of 40%.

Regarding kinesin-1 of pig brain (complex), the gold particles per capsid above background was found to be 0.5 gold/capsid; the percent of capsids with more than one complex, background taken into account was 10%; the percent of capsids with two labels came to 20%.

Turning to “kinesin-2 of pig brain cytosol (complex)”, the gold particles per capsid above background worked out at 0.5 gold/capsid and the percent of capsids with two labels turned out to be 8%.
